The record followed here is US20100261777, “Inhibiton of metallo-beta-lactamase by double-stranded dna” (published 2010).

The IC50 is the midpoint of a concentration-inhibition curve. For orientation: Ki means the dissociation constant of the complex between target and ligand, obtained from inhibition or displacement. A lower Ki goes with higher affinity.

The target of series [1] is T1, metallo-beta-lactamase (class B) 5/B/6 (Bacillus cereus) (UniProt P14488).
T1 sequence: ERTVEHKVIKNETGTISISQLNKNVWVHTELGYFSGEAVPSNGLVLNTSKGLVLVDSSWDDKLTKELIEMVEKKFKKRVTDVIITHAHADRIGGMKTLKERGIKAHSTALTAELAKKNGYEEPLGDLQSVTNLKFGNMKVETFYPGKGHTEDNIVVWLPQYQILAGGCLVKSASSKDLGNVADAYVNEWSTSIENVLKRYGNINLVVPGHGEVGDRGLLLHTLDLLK
The experiment in a line: inhibition. Particulars: for IC50: cephalosporin C 4 mM; for IC50 / Ki: MOPS pH 7.0, 30 C; for Ki: noncompetitive.

The next series deals with T2, carboxypeptidase A (Bos taurus, UniProt P00730 P00730:111-419).
T2 sequence: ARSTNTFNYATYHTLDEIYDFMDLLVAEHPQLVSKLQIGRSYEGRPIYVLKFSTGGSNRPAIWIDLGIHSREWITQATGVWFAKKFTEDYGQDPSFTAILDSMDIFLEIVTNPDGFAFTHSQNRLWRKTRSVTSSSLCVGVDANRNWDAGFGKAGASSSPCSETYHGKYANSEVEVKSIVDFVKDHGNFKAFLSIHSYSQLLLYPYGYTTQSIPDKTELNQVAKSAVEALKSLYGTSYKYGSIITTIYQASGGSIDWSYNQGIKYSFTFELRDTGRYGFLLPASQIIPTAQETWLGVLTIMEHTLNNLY
As to the kind of experiment: inhibition; 10% LiCl, 30 C, hippuryl-L-phenylalanine 1 mM. Particulars: tags: bovine, zinc-dependent. The method, then:
Bovine Carboxypeptidase A Assay. The assay used for the bovine carboxypeptidase A is based on the method developed by Folk and Schirmer (1963). The rate of hydrolysis of hippuryl-L-phenylalanine is determined by monitoring the increase in absorbance at 254 nm (25° C., pH=7.5). The enzyme was dissolved in 10% lithium chloride to a concentration of 1-3 units per mL. Hippuryl-L-phenylalanine (1 mM) was dissolved in 0.05 M Tris HCl, pH=7.5 with 0.5 M sodium chloride. In a 1 cm cuvette, 1.0 mL of substrate was added and incubated in the spectraphotometer at 25° C. for 3-4 minutes to reach temperature equilibrium and establish a blank rate. Fifty μL of diluted enzyme was preincubated for 15 minutes at 25° C. with or without the inhibitor and was then added to record the increase in absorbance at 254 nm.
At 25 times the IC₅₀ value (275 nM) for the metallo-β-lactamase no inhibition of the against B. cereus 569/H/9 β-lactamase I was detected (data not shown) Additionally a bovine carboxypeptidase A (Zn²⁺dependent enzyme) assay was performed to test for Zn²⁺ specificity. […] The enzyme was incubated in the buffer (10% LiC1) for 15 minutes at 30° C. The concentration of the substrate (Hippuryl-L-phenylalanine) is 1 mM.

Series [2] concerns the target T3, metallo-beta-lactamase (class B) 5/B/6 (Bacillus cereus, UniProt P14488 P14488:30-256).
T3 sequence: T1 sequence
As to the kind of experiment: inhibition; single strand control. Particulars: tags: strain 5/B/6; desalted enzyme used for SELEX.

“ATGTTCCTACATGA (double strand) [ds 14-mer]” yielded an IC50 in series [1] of 11 nM. In series [1] (KI' 13 nM), the inhibition constant Ki came out at 13 nM. “CGCGAGCTCCGCGCGNNNNNNNNNNNNNNNNNNNNNNNNNNNNNNCGCGCGCATATGGCGC (double strand) [round 8 SELEX pool (30 nt random insert)]”: the activity in series [1] (preliminary, pool after round 8, DNA quantitation approximate) was 25 % inhibition. The molecule “ATGATCCGGTGCTGT (double strand) [ds 15-mer]” had a 50% inhibitory concentration (IC50) in series [1] of 21 nM. The Ki in series [1] (KI' 76.5 nM) came to 103 nM. The molecule “ATGATCCGGTGCTGTATGTTCCTACATGA (double strand) [ds 29-mer]” came in with an IC50 in series [1] (no added Zn2+) of 14 nM. Also, the Ki in series [1] (KI' 9.1 nM, no added Zn2+) stood at 11 nM.

B1: ds 14-mer (dsDNA)
DNA 1: ATGTTCCTACATGA
DNA 2: TCATGTAGGAACAT
B1 came in with an IC50 with carboxypeptidase A of 100 nM. With ATGATCCGGTGCTGT (ssDNA) [ss 15-mer top strand], the IC50 in series [2] was 150 nM. Same read-out and setting: for ACAGCACCGGATCAT (ssDNA) [ss 15-mer complementary strand] the value was 750 nM.
